Experimental data from patent US20240307560A1, “HEPTAMETHINE CARBOCYANINE DYE-DOTA CONJUGATES COMPLEXED WITH LUTETIUM-177, YTTRIUM-90, OR GALLIUM-68, AND THEIR USES FOR IMAGE-GUIDED RADIOTHERAPY” (priority 2020, published 2024).

Tests used:
in vivo = assay: in vivo; set-up: species or system Balb/C mice; settings: Balb/C, mouse, iv
Procedure: DZ-1-Lys-DOTA-^68Ga (50 μCi) probe was injected into the tail vein of Balb/C mice (n=6, each about 20 g of body weight). Approximately 10 μL of blood from the contralateral tail vein was collected in capillary tubes at 2 min, 5 min, 15 min, 30 min, 1 h, 2 h and 4.5 h post probe injection. The capillaries were placed in pre-weighed tubes to measure the weight and radioactivity of the blood withdrawn. Radioactivity from each sample was measured by a gamma counter with radioactivity decay corrected to the time of probe injection, normalized for injected dose and blood weight, and expressed as percentage injected dose per gram blood (FIG. 2). Each animal was i.v. injected 50 μCi of the probe.
DZ-1-Lys-DOTA-^177Lu (50 μCi) was injected into the tail vein of Balb/C mice (n=6, about 20 g). Approximately 10 μL of blood from the contralateral tail vein was collected in capillary tubes at 2 min, 5 min, 15 min, 30 min, 1 h, 2 h and 6 h post probe injection. The capillaries were placed in pre-weighed tubes to measure the weight and radioactivity of the blood withdrawn. Radioactivity from each sample was measured by a gamma counter with the radioactivity decay corrected to the time of probe injection, normalized for injected dose and blood weight, and expressed as percentage injected dose per gram blood.

[1] = assay type: in vitro ADME, Bovine; settings: for half-life (stability in serum): bovine
Procedure: DZ-1-Lys-DOTA-^68Ga was incubated with Fetal Bovine Serum (FBS) at 37° C., and the stability of DZ-1-Lys-DOTA-^68Ga was analyzed by radio-TLC with 0.1M citric acid as eluent.
The % purity is a marker for stability, with a higher purity indicating a higher stability.
The DZ-1-Lys-DOTA-^177Lu was incubated with Fetal Bovine Serum (FBS) at 37° C., and the probe was analyzed by radio-TLC with 0.1M citric acid as eluent (see FIG. 3). Stability is determined by the percentage of the labeled compound (radiochemical purity).
The DZ-1-Lys-DOTA-^90Y was incubated with Fetal Bovine Serum (FBS) (V:V=2:1) at 37° C. and the probe was analyzed by radio-TLC with 0.1M citric acid as eluent.

[2] = test system: MDA-MB-231 breast cancer cells; assay: Cytotoxicity study, CCK-8; settings: for % cell viability: human
Procedure: The MDA-MB-231 breast cancer cells were pre-seeded into 96-well plates (10^4 cells/well), and placed in a 37° C., 5% CO2 incubator until the cells were fully attached. Serially diluted DZ-1-Lys-DOTA-^90Y (100 μL) was added to each well (7 concentrations diluted from 20 μCi in half), and 3 replicate wells for each concentration point. After 24 and 48 hours of treatment, the supernatant was discarded, and 10 μL of CCK-8 solution and 100 μL of medium were added to each well. The culture was continued for 1 h in the incubator, and the absorbance of each well at 450 nm was measured with a microplate reader.

[3] = 50 uCi, total radioactivity, Normalized radioactivity in blood (% ID/g)

CC1(C)C(/C=C/C2=C(Cl)C(=C/C=C3/N(CCCCCC(=O)NCCCCC(NC(=O)CN4CCN(CC(=O)O)CCN(CC(=O)O)CCN(CC(=O)O)CC4)C(=O)O)c4ccccc4C3(C)C)/CCC2)=[N+](CCCCS(=O)(=O)[O-])c2ccccc21 (single isomer, unassigned) [DZ-1-Lys-DOTA-68Ga, metal not drawn]
elimination half-life for blood clearance (T1/2) (in vivo): 30 min
Normalized radioactivity in blood (% ID/g) (in vivo; 50 uCi, 0.25 h): 1.13 % ID/g
Normalized radioactivity in blood (% ID/g) (in vivo; 50 uCi, 0.5 h): 0.97 % ID/g
Normalized radioactivity in blood (% ID/g) (in vivo; 50 uCi, 1 h): 0.80 % ID/g
Normalized radioactivity in blood (% ID/g) (in vivo; 50 uCi, 2 h): 0.70 % ID/g
tissue uptake at 2 min (in vivo; [3]): 1.83 %ID/g
tissue uptake at 5 min (in vivo; [3]): 1.44 %ID/g
tissue uptake at 4.5 h (in vivo; [3]): 0.5 %ID/g
tissue uptake (in vivo; 50 uCi, total radioactivity, normalized radioactivity in blood (D/g)): ~1.8 %ID/g

CC1(C)C(/C=C/C2=C(Cl)C(=C/C=C3/N(CCCCCC(=O)NCCCCC(NC(=O)CN4CCN(CC(=O)O)CCN(CC(=O)O)CCN(CC(=O)O)CC4)C(=O)O)c4ccccc4C3(C)C)/CCC2)=[N+](CCCCS(=O)(=O)[O-])c2ccccc21 (single isomer, unassigned) [DZ-1-Lys-DOTA-90Y, metal not drawn]
retention (radiochemical purity) [1]: about 30%
half-life (stability in serum) [1]: about 240 min
breast cancer cells caused to die ([2]; 20 μCi, within 48 hours): 80%
cancer cell killing compared to free 90Y (in words) ([2]; 48 h, 20 microCi): kills MDA-MB-231 triple-negative breast cancer cells more effectively
% cell viability ([2]; 48 h, 0.3125 μCi): 43.92%
% cell viability ([2]; 48 h, 0.625 μCi): 42.08%
% cell viability ([2]; 48 h, 1.25 μCi): 41.50%
% cell viability ([2]; 48 h, 2.5 μCi): 39.63%
% cell viability ([2]; 48 h, 5 μCi): 35.57%
% cell viability ([2]; 48 h, 10 μCi): 35.46%
% cell viability ([2]; 48 h, 20 μCi): 19.21%

CC1(C)C(/C=C/C2=C(Cl)C(=C/C=C3/N(CCCCCC(=O)NCCCCC(NC(=O)CN4CCN(CC(=O)O)CCN(CC(=O)O)CCN(CC(=O)O)CC4)C(=O)O)c4ccccc4C3(C)C)/CCC2)=[N+](CCCCS(=O)(=O)[O-])c2ccccc21 (single isomer, unassigned) [DZ-1-Lys-DOTA-177Lu, metal not drawn]
retention (radiochemical purity) [1]: about 30%
half-life (stability in serum) [1]: about 700 min
elimination half-life for blood clearance (T1/2) (in vivo): 15 min
Normalized radioactivity in blood (% ID/g) (in vivo; 50 uCi, 2 min): 1.26 % ID/g
Normalized radioactivity in blood (% ID/g) (in vivo; 50 uCi, 5 min): 0.86 % ID/g
Normalized radioactivity in blood (% ID/g) (in vivo; 50 uCi, 0.25 h): 0.51 % ID/g
Normalized radioactivity in blood (% ID/g) (in vivo; 50 uCi, 0.5 h): 0.43 % ID/g
Normalized radioactivity in blood (% ID/g) (in vivo; 50 uCi, 1 h): 0.36 % ID/g
Normalized radioactivity in blood (% ID/g) (in vivo; 50 uCi, 2 h): 0.34 % ID/g
tissue uptake at 6 h (in vivo; [3]): 0.23 %ID/g
